This is an account of results in article PMC5507356, “Characterization of the molecular chaperone ClpB from the pathogenic spirochaete Leptospira interrogans” (PLoS ONE, 2017).

This data set deals with the molecule itself. Kind of data set: AUC; sedimentation velocity, 1.2 mg/ml ClpBLi with 2 mM ATPγS, 20°C, 50 mM Tris-HCl pH 7.5, 200 mM KCl, 20 mM MgCl2, 1 mM EDTA, 2 mM β-mercaptoethanol, 5% glycerol.

B1: ClpB from Leptospira interrogans (ClpBLi), recombinant (natural protein)
chain: not shown
notes: Chaperone protein ClpB, Leptospira interrogans; intact protein runs at ~100 kDa; Monomer without nucleotide, hexamer with ATPγS; source: E. coli BL21(DE3), purified (Co-NTA IMAC, Superdex 200 gel filtration); not shown: His6, N-terminal, cleaved
Turning to B1, the stoichiometry N (commonly a count of units in the complex or per binding partner) came to 6.
